Experimental data as given in PMC5374406, “The Phosphorylation of PDX-1 by Protein Kinase CK2 Is Crucial for Its Stability” (Pharmaceuticals, 2016).

Key:
PCIF1 (endogenous, MIN6) = PCIF1 (endogenous, MIN6) (UniProt Q6ZWS8); experiment: Duolink proximity ligation assay; details: reference: DMSO, sites T231,S232
PCIF1 (human; SPOP) = PCIF1 (human; SPOP) (UniProt O43791); experiment: GST pull-down, 35S autoradiography; details: sites T231,S232
[1] = biological target: T1, GST-PDX-1 T231D/S232E (CK2-phosphomimicking mutant) (mouse, UniProt P52946 1-284, T231D | S232E); experiment: pull-down; 10 ug purified GST-tagged PDX-1 immobilised on GSH-sepharose in PBS-T (PBS pH 7.4, 1% Tween 20), incubated 2 h at 4 °C with 7.5 uL in vitro translated [35S]-methionine labeled PCIF1; SDS-PAGE, Coomassie and autoradiography; details: one partner purified
T1 construct: 'Full-length mouse PDX-1' is said of the FLAG construct; also called D/E mutant; source: bacterial expression vector pGEX-4T-1, purified
T1 sequence (P52946 whole entry T231D/S232E): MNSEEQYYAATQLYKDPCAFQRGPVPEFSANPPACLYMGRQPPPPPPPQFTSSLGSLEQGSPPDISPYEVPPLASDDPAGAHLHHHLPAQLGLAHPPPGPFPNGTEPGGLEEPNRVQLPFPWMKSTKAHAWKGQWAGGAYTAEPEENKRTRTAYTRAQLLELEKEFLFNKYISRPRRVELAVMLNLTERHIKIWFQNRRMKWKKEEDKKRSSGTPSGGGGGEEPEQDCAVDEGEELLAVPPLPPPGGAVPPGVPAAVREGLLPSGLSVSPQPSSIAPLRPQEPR

In the case of “PDX-1 (from UniProt P52946) 10 µM CX-4945, 25 mM glucose”, the percent of reference (PCIF1 (endogenous, MIN6); 25 mM glucose) is reported as “weaker; reference 100”.

“PDX-1 (from UniProt P52946) 10 µM CX-4945, 5 mM glucose” was tested, and the percent of reference (PCIF1 (endogenous, MIN6); 5 mM glucose) was “weaker; reference 100”.

“PDX-1 (from UniProt P52946) GST-PDX-1 T231D/S232E” was tested, and the fold change (PCIF1 (human; SPOP); reference: GST-PDX-1 T231A/S232A) was 1.5 and the fold change (PCIF1 (human; SPOP); reference: GST-PDX-1 wild type) was 1.5.

B1: PCIF1 (human), in vitro translated and [35S]-methionine labeled, from pET28a-PCIF-1 (natural protein, UniProt O43791 1-374, looked up)
chain: MSRVPSPPPPAEMSSGPVAESWCYTQIKVVKFSYMWTINNFSFCREEMGEVIKSSTFSSGANDKLKWCLRVNPKGLDEESKDYLSLYLLLVSCPKSEVRAKFKFSILNAKGEETKAMESQRAYRFVQGKDWGFKKFIRRDFLLDEANGLLPDDKLTLFCEVSVVQDSVNISGQNTMNMVKVPECRLADELGGLWENSRFTDCCLCVAGQEFQAHKAILAARSPVFSAMFEHEMEESKKNRVEINDVEPEVFKEMMCFIYTGKAPNLDKMADDLLAAADKYALERLKVMCEDALCSNLSVENAAEILILADLHSADQLKTQAVDFINYHASDVLETSGWKSMVVSHPHLVAEAYRSLASAQCPFLGPPRKRLKQS
modifications: [35S]-methionine labeled
notes: PCIF1 / SPOP, human cDNA cloned into the BamH1/Xho1 sites of pET28a; wild-type form; The tags are inferred from the vector and cloning sites; also called SPOP; source: in vitro translated (Promega) from pET28a-PCIF-1
In the case of B1, the “fold binding against wild-type or the AA mutant” value [1] is reported as 1.5 fold.
